This note sets out measurements from US20160108117A1 (UNIVERSITE DE NICE SOPHIA ANTIPOLIS, published 2016).

In general, Kd refers to a measure of binding affinity in units of concentration. A high value points to lower affinity.

Assay [1] addresses T1, peptide specific for human CXCL7 of sequence SDLYAELRCMCIKTTSGIHPKNIQS (SEQ ID NO: 20) coupled to keyhole … (human, coupled to keyhole limpet hemocyanine).
T1 construct: Immunisation peptide, used in the ELISA screen as a KLH conjugate; also called pCXCL7
T1 peptide: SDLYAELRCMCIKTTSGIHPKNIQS
Kind of assay: ELISA screen on KLH-coupled peptide. (In an ELISA, binding on a coated surface is turned into a signal by an enzyme label.)

Assay [2] deals with T2, CXCL3 (human (presumed; the text does not …, UniProt P19876).
T2 construct: also called cytokine CXCL3; Gro-gamma
T2 sequence (chemokine, looked up): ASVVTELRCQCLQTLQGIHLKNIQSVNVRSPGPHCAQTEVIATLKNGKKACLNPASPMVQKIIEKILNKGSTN
Kind of assay: SPR (Biacore 3000), antibody captured on a CM5 chip, cytokine injected as analyte, 25 C. The source says: (§1) With the BIAcore® 3000, 4 canals (Flow cell) are designed on the CM5 sensor surface. The polyclonal rabbit anti mouse IgG antibodies are covalently coupled on the 2nd, 3rd and 4th flow cells (FC), leaving the first FC (FC1) blank for reference subtraction. The first FC (FC1) is only activated (EDC/NHS) and deactivated (ethanolamine hydrochloride NaOH), without injection of capture antibody.
(§2) First the ligand (interest antibody) is captured by the immobilised antibodies. Diluted antibodies Mc12A10-13 (5 μg/mL), Mc35B11-8 (8 μg/mL), McCXCL1 (2 μg/mL), McCXCL7 (1 μg/mL), McCXCL8 (3 μg/mL), McPan CXCL1-2-3 (5 μg/mL) are captured by the polyclonal rabbit anti mouse IgG antibodies immobilized on the CM5 sensor chip with a 3 minutes injection at a flow rate of 5 μL/min. The complex “capture antibody—ligand” is stabilized during 10 minutes before the injection of the analyte (cytokines). This capture is a non-covalent interaction.
(§3) Then a range of cytokine concentration is injected (analyte) over the captured antibody (ligand). Cytokines CXCL1, CXCL3, NAP2, IL8 are injected over the captured ligand for a range of concentration from 0 to 10 μg/mL, at a flow rate of […]. The complex “ligand/analyte” is formed. The association and the dissociation phases are monitored over about 3 minutes and 2.5 minutes respectively. The signal induced is measured in RU (Resonance Unit).
Background: Surface plasmon resonance follows binding to a sensor surface in real time, without labels.

Assay [3] concerns the target T3, human chemokine CXCL7 (human, UniProt P02775 59-128).
T3 construct: also called NAP2; NAP-2
T3 sequence (looked up): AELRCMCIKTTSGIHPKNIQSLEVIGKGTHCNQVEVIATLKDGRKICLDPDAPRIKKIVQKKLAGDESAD
The description is as above.
Source text: as §1, §2, §3

Assay [4] concerns the target T4, human chemokine CXCL1 (human, UniProt P09341 35-107).
T4 construct: also called growth-regulated oncogene alpha; GRO-alpha
T4 sequence (looked up): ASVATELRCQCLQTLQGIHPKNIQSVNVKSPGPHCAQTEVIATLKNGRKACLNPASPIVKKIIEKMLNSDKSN
The assay is described as above.
Source text: as §1, §2, §3

Assay [5] deals with T5, human chemokine CXCL8 (human, UniProt P10145 28-99, limits assumed).
T5 construct: also called IL8; IL-8
T5 sequence (looked up): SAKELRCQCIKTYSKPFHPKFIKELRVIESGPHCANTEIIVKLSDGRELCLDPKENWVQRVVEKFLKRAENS
Described as above.
Source text: as §1, §2, §3

Assay [6] deals with T3, human chemokine CXCL7. Briefly: SPR (Biacore 3000), antibody captured on a CM5 chip, cytokine as analyte, 25 C; head 'x M10Exp8' applied, agrees with 1/Kd.
Source text: as §1, §2, §3

Assay [7] addresses T5, human chemokine CXCL8. Briefly: SPR (Biacore 3000), antibody captured on a CM5 chip, cytokine as analyte, 25 C; head 'x M10Exp8' applied as printed, but this does not agree with 1/Kd of the same pair (about 5.03e7).
Source text: as §1, §2, §3

The target of assay [8] is T4, human chemokine CXCL1. Kind of assay: SPR (Biacore 3000), antibody captured on a CM5 chip, cytokine as analyte, 25 C; head 'x M10Exp8' applied as printed, but this does not agree with 1/Kd of the same pair (about 8.47e7).
Source text: as §1, §2, §3

For assay [9], the target named is T4, human chemokine CXCL1. Briefly: SPR (Biacore 3000), antibody captured on a CM5 chip, cytokine as analyte, 25 C; head 'x M10Exp8' applied as printed, but this does not agree with 1/Kd of the same pair (about 6.4e7).
Source text: as §1, §2, §3

Assay [10] deals with T2, CXCL3. Kind of assay: SPR (Biacore 3000), antibody captured on a CM5 chip, cytokine as analyte, 25 C; head 'x M10Exp8' applied as printed, but this does not agree with 1/Kd of the same pair (about 1.55e7).
Source text: as §1, §2, §3

For assay [11], the target named is T5, human chemokine CXCL8. Kind of assay: SPR (Biacore 3000), antibody captured on a CM5 chip, cytokine as analyte, 25 C; head 'x M10Exp8' applied as printed, but this does not agree with 1/Kd of the same pair (about 2.26e7).
Source text: as §1, §2, §3

B1: monoclonal rat IgG antibody produced by the hybridoma 35B11-8 (CNCM I-4618) (antibody, V domains shown)
VH: EVQLVESGGGLVQPGRSLKLSCVASGFTFNNYWMTWIRQAPGKGLEWVASISKTGSNPYYPDSVKGRFTISRDNAKNTLYLQMNSLRSEDTATYYCARDGTTPLDYWGQGVMVTVSS
VL: DIQMTQSPPSLSASLGDKVTITCQASQNINKYIAWYQQKPGKAPGLLIHYTSTLVSGIPSRFSGSGSGRVYSFSISNVESEDIASYYCLQYDNSPFPFGAGTKLELK
notes: also called Mc35B11-8
B1: in assay [1], the binding result is “binds”. In addition, the equilibrium dissociation constant (Kd) in [2] came out at 247 nM; in assay [3], 4.99 nM; in assay [4], 11.8 nM; in assay [5], 19.9 nM. In addition, the Ka in assay [6] is 2.01e+08 M⁻¹; in [7], 5.03e+07 M⁻¹; in assay [8], 8.5e+07 M⁻¹.

B2: monoclonal rat IgG antibody produced by the hybridoma 12A10-13 (CNCM I-4617) (antibody, V domains shown)
VH: QVQLQQSGAELAKPGSSVKISCKASGYTFTSYYISWIKQTTGQGLEYIGYINTGSGGTNYNEKFKGKATLTVDKSSSTAFMQLSSLTPDDSAVYYCASPSGGFDYWGQGVMVTVSS
VL: EIVLTQSPTTMAASPGEKVTITCRASSSVSYMHWYQQKPGASPKPWIYDTSKLASGVPNRFSGSGSGTSYSLTISSMETEDTATYYCQQWSSNSLTFGSGTKLEIK
notes: also called Mc12A10-13
For B2, the binding result in assay [1] was “binds”. Besides, the Kd in [2] stood at 64.5 nM; in [3], 3.3 nM; in [4], 15.6 nM; in [5], 44.3 nM. Also, the Ka came out at 3.03e+08 M⁻¹ in [6], 6.4e+07 M⁻¹ in assay [9], 1.55e+07 M⁻¹ in assay [10] and 2.26e+07 M⁻¹ in assay [11].
